Columns and labels:
[1] = biological target: human epidermal growth factor receptor 1 (EGFR1), on the surface of HSC-2 and FaDu tumor cells (human) (UniProt P00533); assay: flow cytometry, AlexaFluor488-labeled compound 5 ug/ml, 3 h at +37 C, HSC-2 cells; cell surface bound plus internalized, normalized to degree of labeling
[2] = biological target: human epidermal growth factor receptor 1 (EGFR1), on the surface of HSC-2 and FaDu tumor cells (human) (UniProt P00533); assay: flow cytometry, AlexaFluor488-labeled compound 5 ug/ml, 3 h at +37 C, FaDu cells; cell surface bound plus internalized, normalized to degree of labeling
[3] = biological target: human epidermal growth factor receptor 1 (EGFR1), on the surface of HSC-2 and FaDu tumor cells (human) (UniProt P00533); assay: tritium-labeled compound 5 ug/ml, 3 h at +37 C, FaDu cells, scintillation counting of cell lysate; internalized plus cell surface bound; mean +/- S.D. of three

Row | Substance | Normalized mean fluorescence intensity [1] | Normalized mean fluorescence intensity [2] | % internalized/100000 cells [3]
1 | Control-Fab (Fab fragment of omalizumab) | 1160 | 970 | 
2 | Control-F(ab')2 (F(ab')2 fragment of omalizumab) | 823 | 443 | 
3 | Control-mAb (omalizumab, anti-IgE) (antibody) | 700 |  | 0.01%

Source: patent US20190240330A1
